# US20140179604A1 (U S A REPRESENTED BY THE DEPARTMENT OF VETERANS AFFAIRS, published 2014)
# Non-standard residues stand in square brackets, D forms with d. No end group written: not given here. *: point of attachment. NMeY = CN[C@@H](Cc1ccc(O)cc1)C(=O)O; Agmatine = N=C(N)NCCCCN*; Nle = CCCC[C@H](N)C(=O)O; Orn = NCCC[C@H](N)C(=O)O; Abu = CC[C@H](N)C(=O)O; Ava = NCCCCC(=O)O; GABA = NCCCC(=O)O
# T1: GHRH receptor (membrane receptors of human anterior pituitary cells) (human, UniProt Q02643 23-423)
# T1 construct: whole, on cells; Native receptor in a membrane fraction of purchased normal human pituitaries, not intact cells; also called hGHRH receptor; human pituitary membrane homogenates
# T1 sequence (looked up): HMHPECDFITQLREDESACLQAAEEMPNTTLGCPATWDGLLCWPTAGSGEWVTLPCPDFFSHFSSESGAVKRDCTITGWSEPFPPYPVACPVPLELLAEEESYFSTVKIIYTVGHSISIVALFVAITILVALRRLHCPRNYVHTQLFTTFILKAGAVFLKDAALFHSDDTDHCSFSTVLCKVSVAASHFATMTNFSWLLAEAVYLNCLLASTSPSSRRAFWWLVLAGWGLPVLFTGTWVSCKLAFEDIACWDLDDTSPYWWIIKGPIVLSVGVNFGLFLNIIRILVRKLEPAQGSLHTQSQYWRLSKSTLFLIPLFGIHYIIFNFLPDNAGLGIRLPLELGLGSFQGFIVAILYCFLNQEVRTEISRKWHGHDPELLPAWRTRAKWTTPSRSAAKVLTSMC
# B1: P-22326 [N-Me-Tyr^1, D-Ala^2, Gln^8, Orn^12, Abu^15, Orn^21, Nle^27, Asp^28, Apa^30]hGHRH(1-30)NH2 (peptide)
# peptide: [NMeY][dA]DAIFTQSYR[Orn]VL[Abu]QLSAR[Orn]LLQDI[Nle]DR[Ava]-NH2
# modifications: N-terminus assumed
# SMILES: CCCC[C@H](NC(=O)[C@@H](NC(=O)[C@H](CC(=O)O)NC(=O)[C@H](CCC(N)=O)NC(=O)[C@H](CC(C)C)NC(=O)[C@H](CC(C)C)NC(=O)[C@H](CCCN)NC(=O)[C@H](CCCNC(=N)N)NC(=O)[C@H](C)NC(=O)[C@H](CO)NC(=O)[C@H](CC(C)C)NC(=O)[C@H](CCC(N)=O)NC(=O)[C@H](CC)NC(=O)[C@H](CC(C)C)NC(=O)[C@@H](NC(=O)[C@H](CCCN)NC(=O)[C@H](CCCNC(=N)N)NC(=O)[C@H](Cc1ccc(O)cc1)NC(=O)[C@H](CO)NC(=O)[C@H](CCC(N)=O)NC(=O)[C@@H](NC(=O)[C@H](Cc1ccccc1)NC(=O)[C@@H](NC(=O)[C@H](C)NC(=O)[C@H](CC(=O)O)NC(=O)[C@@H](C)NC(=O)[C@H](Cc1ccc(O)cc1)NC)[C@@H](C)CC)[C@@H](C)O)C(C)C)[C@@H](C)CC)C(=O)N[C@@H](CC(=O)O)C(=O)N[C@@H](CCCNC(=N)N)C(=O)NCCCCC(N)=O
# notes: also called MR-326; Peptide 22326
# B2: P-25501 [N-Me-Tyr^1, D-Ala^2, Orn^12, Abu^15, Orn^21, Nle^27, Gab^30]hGHRH(1-30)NH2 (peptide)
# peptide: [NMeY][dA]DAIFTNSYR[Orn]VL[Abu]QLSAR[Orn]LLQDI[Nle]SR[GABA]-NH2
# modifications: N-terminus assumed
# SMILES: CCCC[C@H](NC(=O)[C@@H](NC(=O)[C@H](CC(=O)O)NC(=O)[C@H](CCC(N)=O)NC(=O)[C@H](CC(C)C)NC(=O)[C@H](CC(C)C)NC(=O)[C@H](CCCN)NC(=O)[C@H](CCCNC(=N)N)NC(=O)[C@H](C)NC(=O)[C@H](CO)NC(=O)[C@H](CC(C)C)NC(=O)[C@H](CCC(N)=O)NC(=O)[C@H](CC)NC(=O)[C@H](CC(C)C)NC(=O)[C@@H](NC(=O)[C@H](CCCN)NC(=O)[C@H](CCCNC(=N)N)NC(=O)[C@H](Cc1ccc(O)cc1)NC(=O)[C@H](CO)NC(=O)[C@H](CC(N)=O)NC(=O)[C@@H](NC(=O)[C@H](Cc1ccccc1)NC(=O)[C@@H](NC(=O)[C@H](C)NC(=O)[C@H](CC(=O)O)NC(=O)[C@@H](C)NC(=O)[C@H](Cc1ccc(O)cc1)NC)[C@@H](C)CC)[C@@H](C)O)C(C)C)[C@@H](C)CC)C(=O)N[C@@H](CO)C(=O)N[C@@H](CCCNC(=N)N)C(=O)NCCCC(N)=O
# notes: also called Peptide 25501
# Molecular target: T1, GHRH receptor (membrane receptors of …)
# Assay: competition with 125I-[His1,Nle27]hGHRH(1-32)NH2, human pituitary membranes
# Excerpt: Normal human pituitary was purchased from the National Hormone and Peptide Program (UCLA Medical Center, Torrance, Calif.).
IC50 [nM],Relative affinity (Binding potency) compared to JI-38 [JI-38 = 1],Relative affinity (Binding potency) compared to hGHRH(1-29),Binder
0.98,2.8,7.81 hGHRH(1-29)NH2 = 1,B1
1.09,2.51,7.01 hGHRH(1-29)NH2 = 1,"[NMeY][dA]DAIFTNSYR[Orn]VL[Abu]QLSAR[Orn]LLQDI[Nle]D[Agmatine] (also called Peptide 20367) [P-20367 [N-Me-Tyr^1, D-Ala^2, Orn^12, Abu^15, Orn^21, Nle^27, Asp^28, Agm^29]hGHRH(1-29)NH2]"
1.01,2.71,7.57 hGHRH(1-29)NH2 = 1,"[NMeY][dA]DAIFTNSYR[Orn]VL[Abu]QLSAR[Orn]LLQDI[Nle]DR-NHMe (also called MR-409; Peptide 27409) [P-27409 [N-Me-Tyr^1, D-Ala^2, Orn^12, Abu^15, Orn^21, Nle^27, Asp^28]hGHRH(1-29)NH-CH3]"
1.28,2.14,5.98 hGHRH(1-29)NH2 = 1,"[NMeY][dA]DAIFTTSYR[Orn]VL[Abu]QLSAR[Orn]LLQDI[Nle]DR-NHMe (also called MR-410; Peptide 27410) [P-27410 [N-Me-Tyr^1, D-Ala^2, Thr^8, Orn^12, Abu^15, Orn^21, Nle^27, Asp^28]hGHRH(1-29)NH-CH3]"
3.05,0.9,2.5 hGHRH(1-29)NH2 = 1,"[NMeY][dA]DAIFTNSYR[Orn]VL[Abu]QLSAR[Orn]LLQDI[Nle]DR-NHEt (also called MR-421; Peptide 28421) [P-28421 [N-Me-Tyr^1, D-Ala^2, Orn^12, Abu^15, Orn^21, Nle^27, Asp^28]hGHRH(1-29)NH-CH2-CH3]"

# Molecular target: T1, GHRH receptor (membrane receptors of …)
# Assay: competition with 125I-JV-1-42, human pituitary membranes
# Excerpt: Normal human pituitaries were purchased from the National Hormone and Peptide Program (A. F. Parlow, Los Angeles, County Harbor-UCLA Medical Center, Torrance, Calif.).
IC50 [nM],Relative affinity (Binding potency) vs JI-38 [JI-38 = 1],Binder
0.71,6.12,B1
1.07,4.07,B2
1.7,2.56,"[NMeY][dA]DAIFTNSYR[Orn]VL[Abu]QLSAR[Orn]LLQDI[Nle]D[Agmatine] (also called Peptide 20367) [P-20367 [N-Me-Tyr^1, D-Ala^2, Orn^12, Abu^15, Orn^21, Nle^27, Asp^28, Agm^29]hGHRH(1-29)NH2]"
1.06,4.1,"[NMeY][dA]DAIFTNSYR[Orn]VL[Abu]QLSAR[Orn]LLQDI[Nle]DR-NHMe (also called MR-409; Peptide 27409) [P-27409 [N-Me-Tyr^1, D-Ala^2, Orn^12, Abu^15, Orn^21, Nle^27, Asp^28]hGHRH(1-29)NH-CH3]"
0.83,5.24,"[NMeY][dA]DAIFTTSYR[Orn]VL[Abu]QLSAR[Orn]LLQDI[Nle]DR-NHMe (also called MR-410; Peptide 27410) [P-27410 [N-Me-Tyr^1, D-Ala^2, Thr^8, Orn^12, Abu^15, Orn^21, Nle^27, Asp^28]hGHRH(1-29)NH-CH3]"
1.47,2.96,"[NMeY][dA]DAIFTNSYR[Orn]VL[Abu]QLSAR[Orn]LLQDI[Nle]DR-NHEt (also called MR-421; Peptide 28421) [P-28421 [N-Me-Tyr^1, D-Ala^2, Orn^12, Abu^15, Orn^21, Nle^27, Asp^28]hGHRH(1-29)NH-CH2-CH3]"
